In patent US6541002 (THOMAS JEFFERSON UNIVERSITY, dated 2003):

Target: T1, Vpr-Gal4DB chimeric protein (HIV-1, UniProt P04386 1-147; P12520 1-96)
T1 construct: also called Vpr-Gal4BD
Assay: yeast two-hybrid, growth on histidine-deficient medium

B1: wild type Gal4AD (other)
chain: ANFNQSGNIADSSLSFTFTNSSNGPNLITTQTNSQALSQPIASSNVHDNFMNNEITASKIDDGNNSKPLSPGWTDQTAYNAFGITTGMFNTTTMDDVYNYLFDDEDTPPNPKKE
binding result: no binding
